Measurements published in the supplement of paper PMC12764529.
± gives the half width of the 95% confidence interval.

Legend:
[1] = folding stability dG unfold from trypsin proteolysis; higher = more stable
Procedure, shortened: (§1)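 Mini-proteins designed to be under 80 residues and free of cysteine were carried in a PA-tagged cDNA display construct and digested with trypsin and with chymotrypsin. Each protease was applied at 11 threefold-diluted concentrations, alongside a no-protease condition, before sequencing. K50 came from Bayesian fitting of the sequencing counts, and unfolding free energy was obtained by comparing it with a sequence-predicted unfolded-state K50 and a shared folded-state K50, for each protease separately or for both together. Designs were retained only if their AlphaFold2 dimer inter-PAE exceeded 15.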

[2] = folding stability dG unfold from chymotrypsin proteolysis; higher = more stable
Procedure, shortened: as §1

[3] = folding stability dG unfold (combined trypsin and chymotrypsin); higher = more stable
Procedure, shortened: as §1

Sequence	folding stability dG unfold [1] [kcal/mol]	folding stability dG unfold [2] [kcal/mol]	folding stability dG unfold [3] [kcal/mol]
SAGMKIVEIEKKEDGTVKIKIEVNGEEKEIEVKVGETITLPDGSEIEVLEDGTIKVRPLPEPEVEEEESAGG [r19_17_TrROS_Hall]	3.24 ± 0.39	2 ± 0.17	2.64 ± 0.26
SAGMKKKITVKVKVKTEEEAEKLAEELEKELGLKVTVEKNEETGVYTITVEVSPEAVEALKKAGVEIESAGG [r19_306_TrROS_Hall]	1.93 ± 0.33	1.92 ± 0.083	1.86 ± 0.28
SAGMKKKKIKKVEIEIKKGEKTIRVKLENGEEIEYKFKEEDLEEALKKIAEKLGLKKGDKIKIVEIEIESAG [r5_923_TrROS_Hall]	1.16 ± 0.12	0.907 ± 0.13	1.29 ± 0.33
SAGMKKPPPPTVTIKIRVNGKTITITVYPDGTVTVTFENGEKKTIKMTPEEVEKLLKELEKKGYEIELVSAG [r5_753_TrROS_Hall]	2.51 ± 0.26	0.664 ± 0.33	1.49 ± 0.48
SAGMKKVKIETTEFREFEGGEREIVMKVYKPDGSEVATVVLPFPPDLSEEEMRERAEAEAKKLAEELGLSAG [r5_697_JUSTAS]	0.581 ± 0.094	0.579 ± 0.17	0.636 ± 0.21
SAGMKPEEVRVIEIPPGMTVEEIIEAIEKEGPLRIRVEGKELEFESKEDIEAAIRNAPEPVRIEVRRLSAGG [r19_95_TrROS_Hall]	0.865 ± 0.04	1.05 ± 0.092	1 ± 0.089
SAGMKPGDMRPVEIPFEIYQYDDGGPKPVAPMTIKIMVNPDEGYVMLEIENPGNGEPVIIFTLPADDISAGG [r19_413_TrROS]	1.65 ± 0.055	2.42 ± 0.057	2.16 ± 0.1
SAGMKPGEPITLVLPDGVVIPIKINPNGGVEIDDIEPPPDGTYNMDARHPNNGKEITLNIKLPPGFQILSAG [r5_394_TrROS]	1.93 ± 0.13	0.239 ± 0.77	0.95 ± 0.43
SAGMKPGETIKNAKIRITYPNGEKKELKIDDVVKIVEIDEEKGVITIELKNGEKIEIKLPPGAKIEIEPSAG [r5_762_TrROS_Hall]	3.42 ± 0.26	1.83 ± 0.24	3.2 ± 0.58
SAGMKPGETITIVLPDGTKIEIKILENGEVEIVKIEKKEDGTYKITIRVKVNGKEIEKEITLPPGAKILSAG [r5_394_TrROS_Hall]	2.52 ± 0.11	2.04 ± 0.12	2.16 ± 0.27
SAGMKPGEVLTVEDIPPGALLRNPKGESLGPVVEVEVRALEDSVEAVVTFPDGSKATVTFPADDIVLDPSAG [r5_850_TrMRF]	1.05 ± 0.19	0.991 ± 0.21	0.987 ± 0.33
SAGMKPIVELLKKEPNPKVILVEVFPTGGEAKIVVKDKVYVFPVKPGPGRRVLVVDPDGKILEVKPFPVSAG [r5_329_TrMRF]	0.596 ± 0.15	0.709 ± 0.14	0.708 ± 0.12
SAGMKPPKIEITIEVVEKDGELYVRVKIKLENGEEIEIVMSLDEVKELLKKLFPEITEIEVEEVRLPPKSAG [r5_25_TrROS_Hall]	2.39 ± 0.12	4.09 ± 0.18	3.74 ± 0.5
SAGMKPSPEGKTIITIDTSTGKVDVVFPDGKEFTLPFDSSSIEEIIKTIKEKLGYPPEVPFNIDEIEIASAG [r5_923_JUSTAS]	2.41 ± 0.1	2.239 ± 0.019	2.31 ± 0.079
